Test system: GST-IRS-1 C-terminus fusion protein containing Ser1101
Sequence (chain, as listed by the source): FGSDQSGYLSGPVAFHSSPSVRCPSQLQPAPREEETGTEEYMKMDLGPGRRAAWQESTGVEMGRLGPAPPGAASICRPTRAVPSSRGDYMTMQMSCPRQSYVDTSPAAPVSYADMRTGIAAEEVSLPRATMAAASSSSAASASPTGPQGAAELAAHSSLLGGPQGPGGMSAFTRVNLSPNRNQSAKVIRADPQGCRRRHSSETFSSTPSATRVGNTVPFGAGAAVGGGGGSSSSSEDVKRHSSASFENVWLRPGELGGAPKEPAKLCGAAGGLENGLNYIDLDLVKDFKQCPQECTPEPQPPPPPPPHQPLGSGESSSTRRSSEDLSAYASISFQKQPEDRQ

Row | Substance | in vitro kinase reaction, phosphorylation at Ser1101 by Western blot
1 | Akt kinase, active | The Akt kinase could not effectively phosphorylate IRS-1 at Ser1101, despite the occurrence of this residue within a putative Akt motif
2 | protein kinase C theta, active, purified | PKC theta is the only PKC isoform that robustly phosphorylated the GST-IRS-1 fusion protein substrate at Ser1101

Reference: US20040097713
